Ends that are not written are not given here. * marks the point of attachment. Biotin = O=C1N[C@H]2[C@H](CS[C@H]2CCCCC(=O)*)N1
Assays:
[1] = target: T1, human EGFRvIII-hFc protein (human, UniProt P00533 25-645); experiment: ELISA, coated EGFRvIII-hFc, antibody 0.01 nM
T1 construct: extracellular domain; made in HEK293 cells, purified on protein A; also called immunogen A; hFc-tagged EGFRvIII protein; not shown: human IgG Fc fragment (hFc) of the pCpC vector
Procedure, shortened: (§1)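 Coat: EGFRvIII-hFc 1.0 μg/mL, 4° C o/n. Block: 1% BSA/PBS-Tween, 2 h RT. Ab 2 h 37° C; HRP 2° Ab 2 h 37° C. TMB 30 min, HCl stop, A450.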

[2] = target: T1, human EGFRvIII-hFc protein; experiment: ELISA, coated EGFRvIII-hFc, antibody 10 nM
Procedure, shortened: as §1

[3] = target: T2, human EGFR protein (wild-type), on cells (human, UniProt P00533 25-1210); experiment: FACS on A431 cells
T2 construct: whole, on cells; transfected on CHO-K1 cells; endogenous on the human cell lines; the cell is named under assay; also called wild-type EGFR; hEGFR
Experimental: The cells are washed twice with the HBSS buffer and are counted, and then the cells are diluted with the HBSS buffer to 2×10⁶ cells/ml, added with 1% goat serum blocking solution, with the percentage being the mass percentage, and incubated on ice for 30 minutes, and then centrifugally washed twice with the HBSS buffer. The collected cells are suspended to 2×10⁶ cells/mL with an FACS buffer (HBSS+1% BSA, with the percentage being the mass percentage), added to a 96-well FACS reaction plate at 100 μL/well, then added with 100 μL/well of the purified EGFRvIII antibody (samples to be tested) obtained in example 2, and incubated on ice for 2 hours. The plate is centrifugally washed twice with the FACS buffer, added with 100 μL/well of a fluorescence (Alexa 488) labeled secondary antibody (purchased from Invitrogen), and then incubated on ice for 1 hour. […] The cells are suspended in 100 μL of the FACS buffer, and the results are detected and analyzed by FACS (FACS Calibur, purchased from BD). Data analysis is performed by using the software (CellQuest) to obtain the mean fluorescence intensity (MFI) of the cells. Data is further analyzed by using the software (GraphPad Prism5) to perform data fitting and calculate EC50. […]

[4] = target: T1, human EGFRvIII-hFc protein; experiment: ELISA, coated EGFRvIII-hFc, antibody 1 nM
Procedure, shortened: as §1

[5] = target: T1, human EGFRvIII-hFc protein; experiment: ELISA, coated EGFRvIII-hFc, antibody 100 nM
Procedure, shortened: as §1

[6] = target: T1, human EGFRvIII-hFc protein; experiment: ELISA, plate coated with human EGFRvIII-hFc, HRP secondary antibody, absorbance at 450 nm
Experimental: The purified immunogen A (EGFRvIII-hFc) obtained in example 1 (for the preparation method, see step (I) in example 1) is diluted with PBS to a final concentration of 1.0 μg/mL, and then added to a 96-well ELISA plate at 100 μl/well. The plate is sealed with a plastic film and incubated at 4° C. overnight. The next day, the plate is washed twice with a plate washing solution [PBS+0.01% (v/v) Tween20], and added with a blocking solution [PBS+0.01% (v/v) Tween20+1% (w/w) BSA] for blocking 2 hours at room temperature. The blocking solution is discarded, and the purified EGFRvIII antibody obtained in example 2 is added at 100 μl/well. The plate is incubated for 2 hours at 37° C., and then washed 3 times with the plate washing solution [PBS+0.01% (v/v) Tween20]. The plate is added with an HRP (horseradish peroxidase) labeled secondary antibody (purchased from Sigma), incubated at 37° C. for 2 hours, and then washed 3 times with the plate washing solution [PBS+0.01% (v/v) Tween20]. The plate is added with 100 μl of TMB substrate/well, incubated for 30 minutes at room temperature, and then added with 100 μl of stopping solution (1.0N HCl)/well. A450 nm value is read using an ELISA plate reader (SpectraMax 384plus, purchased from Molecular Device), and the results are shown in FIG. 6 and table 10.

[7] = target: T1, human EGFRvIII-hFc protein; experiment: ELISA, coated EGFRvIII-hFc, antibody 0.0001 nM
Procedure, shortened: as §1

[8] = target: T1, human EGFRvIII-hFc protein; experiment: ELISA, coated EGFRvIII-hFc, antibody 0.1 nM
Procedure, shortened: as §1

[9] = target: T1, human EGFRvIII-hFc protein; experiment: ELISA, coated EGFRvIII-hFc, antibody 0.001 nM
Procedure, shortened: as §1

[10] = target: T3, human EGFRvIII-hFc protein (human, UniProt P00533 25-645); experiment: ELISA, EGFRvIII-hFc coated
T3 construct: extracellular domain; also called immunogen A; hFc-tagged EGFRvIII protein; not shown: human IgG Fc fragment (hFc) of the pCpC vector

[11] = target: T4, human EGFRvIII protein on the cell surface (human, UniProt P00533 25-1210); experiment: FACS on CHOk1-EGFRvIII cells
T4 construct: whole, on cells; the cell line is named under assay; also called hEGFRvIII; U87MG-hEGFRvIII
Experimental: (§2) The desired cells are subjected to an expanded culture to 90% confluence in a T-75 cell culture flask; the medium is sucked out, and the cells are washed twice with a HBSS buffer (Hanks Balanced Salt Solution) (purchased from Invitrogen), and then treated with an enzyme-free cell dissociation solution (Versene solution: purchased from Life Technology) and collected. The cells are washed twice with the HBSS buffer and are counted, and then the cells are diluted with the HBSS buffer to 2×10⁶ cells/ml, added with 1% goat serum blocking solution, with the percentage being the mass percentage, and incubated on ice for 30 minutes, and then centrifugally washed twice with the HBSS buffer. The collected cells are suspended to 2×10⁶ cells/mL with an FACS buffer (HBSS+1% BSA, with the percentage being the mass percentage), added to a 96-well FACS reaction plate at 100 μL/well, then added with 100 μL/well of the purified EGFRvIII antibody (samples to be tested) obtained in example 2, and incubated on ice for 2 hours. The plate is centrifugally washed twice with the FACS buffer, added with 100 μL/well of a fluorescence (Alexa 488) labeled secondary antibody (purchased from Invitrogen), and then incubated on ice for 1 hour. The plate is centrifugally washed 3 times with the FACS buffer, added with 100 μL/well of a fixing solution [4% (v/v) paraformaldehyde] for suspending the cells, and centrifugally washed twice with the FACS buffer after 10 minutes. The cells are suspended in 100 μL of the FACS buffer, and the results are detected and analyzed by FACS (FACS Calibur, purchased from BD). Data analysis is performed by using the software (CellQuest) to obtain the mean fluorescence intensity (MFI) of the cells. Data is further analyzed by using the software (GraphPad Prism5) to perform data fitting and calculate EC50. […] A431 cells (human epidermal cell cancer cell lines) have a large amount of wild-type EGFR protein expressed on the surface thereof.

[12] = target: T3, human EGFRvIII-hFc protein; experiment: ELISA, EGFRvIII-hFc coated; weak binding, maximum OD450 0.79 against 3.03 for wild type and 0.08 for hIgG
Experimental: The plate is incubated for 2 hours at 37° C., and then washed 3 times with the plate washing solution [PBS+0.01% (v/v) Tween20]. The plate is added with an HRP (horseradish peroxidase) labeled secondary antibody (purchased from Sigma), incubated at 37° C. for 2 hours, and then washed 3 times with the plate washing solution [PBS+0.01% (v/v) Tween20]. The plate is added with 100 μl of TMB substrate/well, incubated for 30 minutes at room temperature, and then added with 100 μl of stopping solution (1.0N HCl)/well. A450 nm value is read using an ELISA plate reader (SpectraMax 384plus, purchased from Molecular Device), and the results are shown in FIG. 11 and table 19.

[13] = target: T5, human wild-type EGFR protein on the cell surface (human, UniProt P00533 25-1210); experiment: FACS on CHOk1-EGFR cells
T5 construct: whole, on cells; Endogenous on A431, HEB, U87MG cells and normal human primary hepatocytes; transfected on CHOk1-EGFR cells; The cell is named under assay; also called A431; HEB
Experimental: as §2, with “The” for “The desired cells are subjected to an expanded culture to 90% confluence in a T-75 cell culture flask; the medium is sucked out, and the cells are washed twice with a HBSS buffer (Hanks Balanced Salt Solution) (purchased from Invitrogen), and then treated with an enzyme-free cell dissociation solution (Versene solution: purchased from Life Technology) and collected. The”, “thereof. […] U87MG cells (human glioma cell lines) have a small amount of wild-type EGFR protein expressed on the surface thereof, while HEB cells (human glioma cell lines) have a high level of wild-type EGFR protein expression on the surface thereof.” for “thereof.”

[14] = target: T6, pep31 (cysteine pairing not given here); experiment: peptide dot matrix ELISA
T6 peptide: GVRKCKKCEGPCRKVCK(Biotin)

[15] = target: T7, pep24 (cysteine pairing not given here); experiment: peptide dot matrix ELISA
T7 peptide: SYEMEEDGVRKCKKCEK(Biotin)

[16] = target: T8, pep09 (cysteine pairing not given here); experiment: peptide dot matrix ELISA
T8 peptide: VVTDHGSCVRACGADSK(Biotin)

[17] = target: T9, pep08 (cysteine pairing not given here); experiment: peptide dot matrix ELISA
T9 peptide: YVVTDHGSCVRACGADK(Biotin)

[18] = target: T10, pep22; experiment: peptide dot matrix ELISA
T10 peptide: ADSYEMEEDGVRKCKKK(Biotin)

[19] = target: T11, pep25 (cysteine pairing not given here); experiment: peptide dot matrix ELISA
T11 peptide: YEMEEDGVRKCKKCEGK(Biotin)

[20] = target: T12, pep11 (cysteine pairing not given here); experiment: peptide dot matrix ELISA
T12 peptide: TDHGSCVRACGADSYEK(Biotin)

[21] = target: T13, pep19; experiment: peptide dot matrix ELISA
T13 peptide: ACGADSYEMEEDGVRKK(Biotin)

[22] = target: T14, pep23 (cysteine pairing not given here); experiment: peptide dot matrix ELISA
T14 peptide: DSYEMEEDGVRKCKKCK(Biotin)

[23] = target: T15, pep12 (cysteine pairing not given here); experiment: peptide dot matrix ELISA
T15 peptide: DHGSCVRACGADSYEMK(Biotin)

[24] = target: T16, pep17; experiment: peptide dot matrix ELISA
T16 peptide: VRACGADSYEMEEDGVK(Biotin)

[25] = target: T17, pep10 (cysteine pairing not given here); experiment: peptide dot matrix ELISA
T17 peptide: VTDHGSCVRACGADSYK(Biotin)

[26] = target: T18, pep03; experiment: peptide dot matrix ELISA
T18 peptide: EKKGNYVVTDHGSCVRK(Biotin)

[27] = target: T19, pep29 (cysteine pairing not given here); experiment: peptide dot matrix ELISA
T19 peptide: EDGVRKCKKCEGPCRKK(Biotin)

[28] = target: T20, pep34 (cysteine pairing not given here); experiment: peptide dot matrix ELISA
T20 peptide: KCKKCEGPCRKVCNGIK(Biotin)

[29] = target: T21, pep32 (cysteine pairing not given here); experiment: peptide dot matrix ELISA
T21 peptide: VRKCKKCEGPCRKVCNK(Biotin)

[30] = target: T22, pep01; experiment: peptide dot matrix ELISA
T22 peptide: LEEKKGNYVVTDHGSCK(Biotin)

[31] = target: T23, pep02; experiment: peptide dot matrix ELISA
T23 peptide: EEKKGNYVVTDHGSCVK(Biotin)

[32] = target: T24, pep30 (cysteine pairing not given here); experiment: peptide dot matrix ELISA
T24 peptide: DGVRKCKKCEGPCRKVK(Biotin)

B1: Murine anti-7E5 (antibody, V domains shown)
VH: EIQLQQSGPELVKPGASVKVSCKASGYSFTDYNMYWVKQSHGKSLEWIGYVDPSNGGTNYNQKFKGKATLTVDKSSSTAFMHLNSLTSEDSAVYYCARGFFDYWGQGTTLTVSS
VL: DIVMTQSPSSLTVTAGEKVTMSCKSSQSLLNSGNQKNYLTWYQQKPGQPPKLLIYWASNRESGVPDRFTGSGSGKDFTLTISSVQAEDLAVYYCQNDYRYPVTFGAGTKLELK
notes: murine hybridoma antibody; also called 7E5-2A9; murine anti-7E5-2
In the case of B1, the OD450 nm [1] is reported as 0.35, the OD450 nm [2] is reported as 3.14 and the binding result [3] is reported as “no binding”. The OD450 nm [4] was 3.18, the OD450 nm [5] was 3.36 and the “EC50 (read off the curve)” value [6] was roughly 0.02 nM. It also gave an OD450 nm [7] of 0.15, an OD450 nm [8] of 1.68 and an OD450 nm [9] of 0.17.

B2: c75G7C6-4 (antibody, human IgG1, V domains shown)
VH: EVQLQQSGPELVKPGASVKIPCKASGYTFTDYNMDWVKQSHGKSLEWIGDINPNNGDTIYNQKFKGKATLTVDKSSSTAYMELRSLTSEDTAVYYCARGDYSGYYPVYYAMDYWGQGTSVTVSS
VL: ENVLTQSPAIMSASPGEKVTMTCRASSSVSSSYLHWYQQKSGASPKLWIFSTSNLAAGVPARFSGSGSGTSYSLTVSSVEAEDAATYYCQQYSGYPLTFGAGTKLELK
notes: Chimeric 75G7C6 with DG of heavy chain CDR3 mutated to SG; Human IgG1/kappa; also called mutant chimeric antibody DG/SG
With B2 the “Maximum OD450 value” [10] was 0.79 OD450, the EC50 [11] was 24 nM and the “Maximum mean fluorescence intensity” value [11] was 52600 MFI. For the same binder, the EC50 [12] was 7.94 nM and the “Maximum mean fluorescence intensity” value [13] was 8970 MFI.

B3: Chimeric antibody 64F1 (antibody, V domains shown)
VH: QVQLQQSGAELARPGASVKMSCKASGYTFSSYTMHWAKQRPGQGLEWIGYINPSSGYTKYNQKFKDKATLTADKSSSTAYMQLSSLTSEDSIVYYCARGGGRGFAYWGQGTLVTVSA
VL: QIVLTQSPAIMSASPGERVTMTCSASSSVSYMYWYQQKPGSSPRLLIYDTSNLASGVPVRFSGSGSGTSYSLTISRVEAEDAATYYCQQWSSYSLTFGAGTKLELK
notes: also called 64F1F8 chimeric
With B3 the ELISA signal [14] was 0.06, the ELISA signal [15] was 0.06 and the ELISA signal [16] was 0.05. It also gave an ELISA signal [17] of 0.05, an ELISA signal [18] of 0.08 and an ELISA signal [19] of 0.06. It also gave an ELISA signal [20] of 0.05, an ELISA signal [21] of 0.05 and an ELISA signal [22] of 0.07. For the same binder, the ELISA signal [23] was 0.05, the ELISA signal [24] was 0.05 and the ELISA signal [25] was 0.05. For the same binder, the ELISA signal [26] was 0.05, the ELISA signal [27] was 0.06 and the ELISA signal [28] was 0.07. The ELISA signal [29] was 0.06, the ELISA signal [30] was 0.05 and the ELISA signal [31] was 0.05. The ELISA signal [32] was 0.06.

Reference: patent US20210032351A1 (XDCEXPLORER SHANGHAI, published 2021)
